US8227408B2, “Leptin as an anti-amyloidogenic biologic and methods for delaying the onset and reducing Alzheimer's disease-like pathology” (Neurotez, Inc., priority 2005, dated 2012)

Tests used:
astrocytes = assay: Filipin staining of astrocytes; format: cell-based, rat; settings: about 5 h
Procedure: (§1) Leptin was detected using a rabbit polyclonal antibody raised against mouse leptin, corss-reacting with human leptin (obtained from Dr. A. F. Parlow, Harbor-UCLA, CA). Immunofluorescent confocal microscopy was performed on 2% paraformaldehyde-fixed primary neural cells. Filipin staining was performed as described (Feng et al., Nat Cell Biol. 5:781-92 (2003)).
(§2) Neural cultures from ε15 rat cerebral cortex were processed for enrichment of neurons (a-d) or astrocytes (e-h) as described (Takeshima et al., J. Neurosci. Methods 67: 27-41 (1996)). After about 7 days to about 10 days in culture, cultures were treated for about 5 h with about 10 μg/ml cholesterol (b, f) or about 400 ng/ml leptin plus cholesterol (c, g) or leptin alone (d, h). Controls (a, e) were treated with culture media alone. Filipin staining was performed as described (Feng et al., Nat. Cell Biol. 5: 781-92 (2003)). Neurons (i-k) and astrocytes (l-n) prepared as above were treated with 0 μM (i, l), 5 μM (j, m) or 10 μM cholesterol (k, n) for 5 h. Immunostaining was performed for leptin (A.F.Parlow, Harbor-UCLA, CA).

SY5Y cells = assay: 125I-Aβ uptake by SY5Y cells (apoE-dependent); format: cell-based, human
Procedure: Preparation of ApoE and binding with ^125I-Aβ. ApoE was isolated from the conditioned media of human embryonic kidney (HEK-293) cells stably-transfected with human apoE (having the ε3 allele or the ε4 allele) cDNA (Tezapsidis et al., FASEB J. 17:1322-1324 (2003)). These preparations, while usually poor in lipid, are fully functional for uptake experiments. ApoE then was pre-incubated with ^125I-Aβ overnight at 37° C. (Aβ/ApoE: 1/50 w/w) as described (Tezapsidis et al., FASEB J. 17:1322-1324 (2003)).
Aβ-uptake by SY5Y cells. Human ^125I-Aβ (iodinated at Tyr-10, Amersham Biosciences, IM 294) uptake was measured following addition of 0.1 nM ^125I-Aβ40 (SEQ ID NO: 4) to confluent SY5Y cells (60,000 cpm/ml) in the presence or absence of 100 ng/ml or 400 ng/ml leptin also included in a 24 h pre-incubation period. ^125I-Aβ was either added alone or was previously incubated with apoε3. In controls, Receptor Associated Protein (“RAP”, 1 μM) was added together with Aβ or the Aβ/apoE complex. RAP is an antagonist of a number of lipoprotein receptors (LaDu et al., Neurochem Int. 39:427-34 (2001)). After 24 h, the media were collected and subjected to scintillation counting for γ-Iradiation (Kang et al., 2000. J Clin Invest. 106:1159-66 (2000)). The amount of radioactivity was measured in both the trichloroacetic acid (10%) TCA pellets (representing intact Aβ) and the corresponding supernatants (representing degraded Aβ). 96.5±8.2% (mean±s.e.m., n=4 experiments, triplicate determinations) of the radioactivity found in the medium could be recovered in the TCA pellet and represented intact or oligomeric Aβ (not shown), when Aβ was pre-incubated with apoE.
The amount of TCA-precipitable radioactivity in the soluble fraction of cell lysates was compared to that in the total lysates, the ratio of which was typically about 0.8 to about 0.9 (not shown), to further verify that radioactivity was reduced in the media as a reflection of Aβ uptake by the cells, rather than due to non-specific binding to the extracellular surface of membranes or oligomerization/aggregation of Aβ.
In panel (a), Aβ uptake was measured in SY5Y cells following their treatment at 0 ng/ml, 100 ng/ml or 400 ng/ml leptin. Uptake also was measured in cells previously transfected with antisense DNA for PS1 as described (Tezapsidis et al., FASEB J. 17:1322-1324(2003)) (black). Uptake is expressed as the percentage of that observed with Aβ pre-incubated with apoε3 (medium gray) in the absence of leptin (first set of columns). […] Leptin induced a dose-dependent increase in Aβ uptake with a preference for apoε3 (medium gray) over apoε4 (light gray). In panel (b), SY5Y cells were pre-treated with […] cholesterol (+Chol) or normal medium (−Chol). Then Aβ uptake was measured following its preincubation with apoε3 (ε3) or apoε4 (ε4) in the absence (black) or the presence (gray) of about 400 ng/ml leptin. Cells were more resistant to taking-up Aβ when loaded with cholesterol. […] In panel (c), SY5Y cells were transiently transfected with SREBP-1 or SREBP-2 cDNA or an empty vector (Control). Then Aβ was measured in the medium by ELISAs (Figueiredo-Pereira et al., J Neurochem. 72:1417-22 (1999)) following treatment with (+) or without (−) leptin. […] In panel (d), Aβ uptake was measured in SY5Y cells prepared as in panel (c). Uptake was performed using Aβ/apoε3 complexes.

[1] = tested on: Neuro2a cells stably transfected with hyg-sa134 (SEAP-APP); assay: Aβ production by Neuro2a cells stably transfected with hyg-sa134 (total Aβ in media, sandwich ELISA); format: cell-based, mouse; settings: 5 h; about 400 ng/ml leptin alone or 10 μM water-soluble cholesterol alone; FIG. 4b
primary neurons = assay: Filipin staining of primary neurons; format: cell-based, rat; settings: about 5 h
Procedure: as §1, §2

β-secretase = assay: C99/C83 accumulation in SY5Y cells in presence of γ-secretase inhibitors (Western blot); format: cell-based, human; settings: 5 h

B1: Leptin: peptide hormone controlling adaptive metabolic mechanisms to energy availability; leptin (Harbor-UCLA) in vitro, recombinant murine leptin in mice (protein, UniProt P41160 22-167, looked up)
Leptin: VPIQKVQDDTKTLIKTIVTRINDISHTQSVSAKQRVTGLDFIPGLHPILSLSKMDQTLAVYQQVLTSLPSQNVLQIANDLENLRDLLHLLAFSKSCSLPQTSGLQKPESLDGVLEASLYSTEVVALSRLQGSLQDILQQLDVSPEC
filipin labelling (astrocytes; about 400 ng/ml leptin): diminished filipin labelling
increase in filipin labelling by cholesterol (astrocytes; leptin about 400 ng/ml plus cholesterol about 10 μg/ml): prohibited an increase
uptake of apoE-Aβ (SY5Y cells; 100 ng/ml or 400 ng/ml leptin, 24 h pre-incubation and uptake): increased the uptake of apoE-Aβ in a dose-dependent fashion
Aβ uptake phenotype of cholesterol-loaded cells (SY5Y cells; about 400 ng/ml leptin during cholesterol pre-incubation and during uptake): almost completely reversed
levels of Aβ detected in the media (percentage of corresponding controls) [1]: 56±5%
increase in filipin labelling by cholesterol (primary neurons; neurons, leptin about 400 ng/ml plus cholesterol about 10 μg/ml): prohibited an increase
filipin labelling (primary neurons; primary neurons, about 400 ng/ml leptin): diminished filipin labelling
cholesterol-induced increase in C99 (β-secretase; 10 μM cholesterol in the presence of 400 ng/ml leptin): abolished
C99 level (β-secretase; with L-685,458 (100 nM) or Z-VL-CHO (100 μM), 10 μM cholesterol or 400 ng/ml leptin alone): also was observed in the absence of cholesterol
